From patent US6045809A, “Pharmaceutical compositions containing a superoxide dismutase” (Institut de Recherches Franctales, priority 1995, dated 2000)

Key:
[1] = Erythrocyte SOD kinetics in anaesthetized rats after oral administration (gavage); parameters: species or system rat (male OFA, Sprague-Dawley); conditions: rat, in vivo
Experimental: (§1) The kinetics of the plasmatic SOD are analyzed in anaesthetized rats after the oral or subcutaneous administration of free SOD, liposomal SOD or SOD in the form of a composition according to the invention.
(§2) The rats used are male OFA, Sprague-Dawley rats which are devoid of pathogenic germs, weigh 300 to 400 g and are not of the same blood type (IFFA CREDO breed).
bovine erythrocyte SOD (Allerbiodose®) 1-2-4 mg/ml, in NaCl 0.9%,
bovine erythrocyte SOD 1-2-4 mg/ml+plant ceramides 1% (Inocosm), in NaCl 0.9%, according to the invention,
liposomal bovine erythrocyte SOD 1-2-4 mg/ml,
(§3) bovine erythrocyte SOD+gliadin, according to the invention.
The gavage is performed on the animals (n=4) at T0 with a volume of 1 ml of solution or suspension to be studied, in 0.9% NaCl solution. This gavage is performed using a cannula mounted on a 1 ml syringe and introduced into the buccal cavity of the rat.
(§4) Each series of experiments is carried out on 4 animals per dose, the control groups always being treated in parallel for each experiment.
(§5) Once the gavage (or the subcutaneous injection) has been performed on the animals, the latter are anaesthetized by the slow intraperitoneal injection of thiopental (0.1 ml/100 g).
The samples are taken every hour for 6 hours (400 μl) via the one-way tap. The blood is collected in heparinated Eppendorf tubes (20 μl of heparin 1000 IU/ml). It is then centrifuged for 5 min at 4000 rpm. The plasma is then discarded and replaced with NaCl 0.9%. The tubes are centrifuged again for 5 min at 4000 rpm. The red blood cells are thus washed three times in succession.
The assays of the enzymatic activity of the erythrocyte SOD (of each form) are performed on each control or treated sample.
The erythrocytes are appropriately diluted in distilled water (+0.5 ml of 1% Triton solution) so that the inhibition obtained in the study tube is about 50% of that in the control tube.
The results obtained in IU SOD/ml are reported in IU SOD/mg haemoglobin. The haemoglobin is assayed by spectrophotometry at 405 nm.

rat paw oedema = test: λ carrageenan-induced paw oedema after oral administration (gavage); assay type: in vivo; conditions: dose of 0.5 mg/kg
Experimental: To study the comparative kinetics of the anti-inflammatory action of a free form of SOD and a composition according to the invention, at different concentrations.
2 gavages are performed per day (morning and evening).
Injection of 0.1 ml of λ carrageenan 1% in the paw pad.
The measurements are made every hour for 6 hours.

[2] = Erythrocyte SOD kinetics in anaesthetized rats after subcutaneous administration; parameters: species or system rat (male OFA, Sprague-Dawley); conditions: rat, in vivo, sc
Experimental: as §1, §2
Subcutaneous administration:
bovine erythrocyte SOD (Allerbiodose®) 0.5-1-2 mg/ml, in NaCl 0.9%,
bovine erythrocyte SOD 0.5-1-2 mg/ml+plant ceramides 1% (Inocosm), in NaCl 0.9%, according to the invention,
liposomal bovine erythrocyte SOD 0.5-1-2 mg/ml,
as §3
The solutions or suspensions to be studied are administered at T0 by the injection of a volume of 0.3 ml (in 0.9% NaCl solution) behind the animal's head (n=4).
as §4, §5
The samples are taken every hour for 6 hours (400 μl) via the one-way tap. The blood is collected in heparinated Eppendorf tubes (20 μl of heparin 1000 IU/ml). It is then centrifuged for 5 min at 4000 rpm. […]

granulocytes = test: Granulocyte activation (production of superoxide anions after stimulation with zymosan or PMA); assay type: cell-based
Experimental: The samples are those collected 3 hours after pleurisy.
Reagent control: PBS^+ (0.65 ml)+cytochrome C 5 mg/ml (0.15 ml).
Cell control: PBS^+ (0.65 ml)+cytochrome C 5 mg/ml (0.15 ml)+G 10 M/ml (0.2 ml).
Test: PBS^+ (0.45 ml)+cytochrome C 5 mg/ml (0.15 ml)+ZO or PMA (0.2 ml), with: NaCl control (column 1), SOD (column 2), Ceramide control (column 3), SOD+ceramides (column 4), Liposome control (column 5), Liposomal SOD (column 6).
Incubate for 15 minutes in a water bath at 37° C., with shaking,
stop the reaction for 10 minutes in an ice bath,
centrifuge for 5 minutes at 2000 rpm.

For “SOD: bovine erythrocyte SOD (Allerbiodose®), in NaCl 0.9%”, the “Cmax (comparison in words)” value [1] was “lower”, the “Concentrations/passage of SOD after oral administration (in words)” value [1] was “reaches high concentrations when administered orally” and the Tmax [1] was “around 5 hours”. The “Number of gavages from which the anti-inflammatory effect is observed” value (rat paw oedema) was ≥ 4 gavages, the “Cmax (comparison in words)” value [2] was “slightly lower” and the “Significance (P) of the anti-inflammatory role” value (granulocytes; by oral administration) was < 0.05. For the same substance, the “Effect of oral administration on granulocyte activation (in words)” value (granulocytes; oral administration, FIGS. 18 to 20) was “inhibitory effect”.
